For one substance, Kd, koff and kon results are on record in PMC8372230.

In general, Kd refers to the constant that tells how readily two partners part at equilibrium. A word on the koff: it is the rate constant with which the complex falls apart. Higher therefore signals a short-lived complex. A word on the kon: it is the rate constant with which the complex forms. High values mean faster complex formation, low ones slower complex formation.

In this assay the target is extracellular domain (residues Q18 to S740) of human ACE2 fused with human IgG1 Fc (human) (UniProt Q9BYF1). Put plainly: BLI. (In BLI a coated tip is dipped into the sample, and binding shifts an interference pattern.)
UniProt Q9BYF1, sequence (Q9BYF1 18-740): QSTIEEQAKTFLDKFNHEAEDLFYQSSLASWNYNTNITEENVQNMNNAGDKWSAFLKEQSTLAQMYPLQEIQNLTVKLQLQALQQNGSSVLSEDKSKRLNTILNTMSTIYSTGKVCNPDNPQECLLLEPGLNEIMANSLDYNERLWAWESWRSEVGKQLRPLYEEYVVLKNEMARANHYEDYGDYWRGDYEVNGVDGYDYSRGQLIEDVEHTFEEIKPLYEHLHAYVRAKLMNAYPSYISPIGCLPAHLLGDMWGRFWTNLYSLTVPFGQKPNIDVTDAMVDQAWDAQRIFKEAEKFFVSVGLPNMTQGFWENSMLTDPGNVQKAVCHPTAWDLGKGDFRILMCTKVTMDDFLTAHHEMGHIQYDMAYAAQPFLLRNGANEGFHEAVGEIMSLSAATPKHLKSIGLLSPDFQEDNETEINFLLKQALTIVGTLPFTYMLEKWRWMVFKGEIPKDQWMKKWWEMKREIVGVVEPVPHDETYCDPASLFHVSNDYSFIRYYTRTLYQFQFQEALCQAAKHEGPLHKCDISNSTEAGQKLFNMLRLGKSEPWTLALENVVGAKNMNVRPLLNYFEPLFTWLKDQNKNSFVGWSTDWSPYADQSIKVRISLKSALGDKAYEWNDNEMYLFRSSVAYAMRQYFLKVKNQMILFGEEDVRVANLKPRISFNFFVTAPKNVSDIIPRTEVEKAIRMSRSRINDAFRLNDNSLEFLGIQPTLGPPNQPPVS

“yeast-derived monomeric RBD of SARS-CoV-2 (residues 320-550, C-terminal 6x His-tag) (domain or fragment)” came in with a Kd of 9.07 nM, an off-rate constant (koff) of 0.00239 s⁻¹ and a kon of 264000 M⁻¹ s⁻¹.
